From PMC9834240, “Senescent cells perturb intestinal stem cell differentiation through Ptk7 induced noncanonical Wnt and YAP signaling” (Nature Communications, 2023) come the findings set out here.

What all share (assay type): cell-based
The test system of experiment [1] is mouse intestinal organoids. As to the kind of experiment: cystic organoid percentage, organoids in conditioned media (SCM/QCM) with or without inhibitors or antibodies. As to conditions: SCM-exposed organoids. Here is the method:
Twenty-four hours before collecting conditioned media (CM), MEFs were washed with serum-free DMEM twice, and serum-free DMEM was added. After 24 h in serum-free DMEM, this CM was collected, filtered using Steriflip filters (Millipore, #SE1M179M6) to remove cell debris, and concentrated using centrifugal filter units (Amicon ultra-15 centricon; Millipore, # UFC900324). […] CM was filtered and dialyzed for 24–48 h to remove the inhibitors before concentration.
(§1) The jejunum part of the small intestine was removed, flushed with PBS, opened longitudinally, then cut into 0.5 cm pieces. The collected tissues were washed with ice cold PBS multiple times by vortexing and incubated in PBS containing 2.5 mM EDTA for 5 min at 37 °C. After gentle shaking and aspiration, tissues were incubated in PBS containing 5 mM EDTA for 7 min at 37 °C. Tissues were then washed with PBS to remove EDTA and vigorously shaken to release crypts. The released crypts were passed through 70 μm strainers, washed with PBS, and pelleted by centrifugation at 200 × g.
(§2) 3-4 biological replicates of organoids from different mice were used per condition. Organoids were cultured in the indicated media, inhibitors, antibodies and/or recombinant proteins for 5 d and fixed in 4% formaldehyde in PBS. Organoids were imaged with a 4× Plan Fluor objective (NA: 0.13, Nikon) on a Nikon Ti-E inverted microscope equipped with a Neo scMOS camera (Andor, Oxford Instruments), a linear encoded automated stage (Applied Scientific Instrumentation), all run by NIS Elements software (Nikon). Organoids were imaged in brightfield and images covering the whole well were stitched and focused into one image projection with an extended depth of focus module (EDF; Nikon). One hundred to 200 organoids per replicate per condition were counted and used for quantification. The number of budding organoids in each condition was normalized by the number of budding organoids in untreated or DMSO treated controls to calculate cystic organoid percentage:1 Cysticorganoidpercentage=100×1−Numberofbuddingorganoidsfromexperiment/Numberofbuddingorganoidsfromcontrol

In experiment [2] the test system is YAP in mouse intestinal organoids. Nature of the experiment: whole mount immunostaining for YAP nuclear localization. Here is the method: For whole mount staining, freshly passaged crypts were mixed with Matrigel (Corning, #356231) and mounted to µ-Slide 8 well chamber slides (ibidi, #80826). Media were changed every 2–3 d. 5 days later, organoids in the chamber slides were then fixed in 4% formaldehyde in PBS for 30 min, permeabilized with 0.5% Triton X-100 for 1 h, and incubated in blocking solution (3% normal donkey serum (Sigma-Aldrich, #566460) and 5% BSA (Sigma-Aldrich, #A7979) in 0.1% Triton X-100 + PBS) for 1 h. Primary and secondary antibodies were diluted in blocking solution and added to fixed organoids. Organoids were incubated with primary antibodies overnight at 4 °C and with secondary antibodies for 2 h. ProLong Diamond Antifade Mountant (Invitrogen, # P36970) was added. Images were acquired with a Yokogawa CSU-W1/Zeiss 3i Marianas spinning disk confocal microscopy system. For each organoid, Z-planes up to 100 μm with 1 or 1.5 μm z-steps were acquired to quantify the number of cell types.

Experiment [3] concerns mouse intestinal organoids. Nature of the experiment: cystic organoid percentage, co-culture with quiescent or senescent intestinal fibroblasts. Details: key: % = 100×(1 − budding organoids treated/budding organoids control). The conditions noted are these: relative to DMSO = 0. On the procedure: as §2
Mouse intestinal fibroblasts were purchased from Cell Biologics (#C57-6231) and cultured in Complete Fibroblast Medium (Cell Biologics, M2267) at 37 °C and 5% CO2. Cellular quiescence and senescence in mouse intestinal fibroblasts were induced by the similar methods described earlier for MEFs with minor modifications. Briefly, cellular quiescence was induced by culturing the fibroblasts in low serum (0.5% FBS), and cellular senescence was induced by 500 nM doxorubicin treatment for 5 days (doxorubicin; Sigma-Aldrich, #44583). Once cellular quiescence or senescence was induced, MEFs were maintained at 37 °C, 5% CO2, and 3% O2 for another 5 days. The quiescent or senescent fibroblasts were dissociated using 0.05% Trypsin-EDTA (Gibco, #25300-054) and counted for seeding. The same number of quiescent and senescent fibroblasts (5.2 × 10^4 cells) were mixed with intestinal organoids making total volume of 20 μl of Matrigel: organoid culture media mix, which was mounted on a 48 well plate.

Experiment [4] deals with mouse intestinal organoids. As to the kind of experiment: inhibition of Wnt5a-induced cystic organoids. The conditions noted are these: Wnt5a-treated organoids. On the procedure:
as §1, with “g. Resuspended crypts were mixed with Matrigel (Corning, #356231; Lot#8218007) and pipetted into culture plates. After mixture of crypts and Matrigel solidified, IntestiCult Organoid Growth Medium (Stem Cell Technologies, #06005; Lots #1000021927, #1000034230, #1000037372) was added. Seven days after seeding, organoids were resuspended in dissociation buffer (Gentle Cell Dissociation Reagent; Stem Cell Technologies, #07174), dissociated by pipetting, and seeded for experiments.” for “g.”
as §2

Experiment [5] has as its system mouse intestinal organoids. As to the kind of experiment: cystic organoid percentage, organoids treated with recombinant Wnt ligands (Wnt3a, Wnt5a, Wnt11). As to conditions: for cystic organoid percentage: SF.3p, Untreated = 0. On the procedure:
as §1, with “g. Resuspended crypts were mixed with Matrigel (Corning, #356231; Lot#8218007) and pipetted into culture plates. After mixture of crypts and Matrigel solidified, IntestiCult Organoid Growth Medium (Stem Cell Technologies, #06005; Lots #1000021927, #1000034230, #1000037372) was added. Seven days after seeding, organoids were resuspended in dissociation buffer (Gentle Cell Dissociation Reagent; Stem Cell Technologies, #07174), dissociated by pipetting, and seeded for experiments.” for “g.”
as §2

Experiment [6] deals with β-Catenin-dependent Wnt signaling (HEK293-TB cells). Nature of the experiment: TOPbrite dual-luciferase Wnt reporter assay. As to conditions: SF.3e. Here is the method:
Generation of HEK293 cells stably expressing a TOPbrite firefly luciferase Wnt reporter and pRL-SV40 Renilla luciferase (HEK293-TB) was previously described. HEK293-TB cells were maintained in DMEM/F12 (50:50), supplemented with 10% FBS, 2 mM Glutamax (Gibco, #35050-061) and 40 μg/ml hygromycin (Cellgro, #30-240-CR). For the luciferase reporter assay, HEK293-TB cells were seeded in 96-well plates (Falcon, #353377). The next day, cells were treated with indicated Wnt ligands (50 ng/ml) or CM diluted in culture media. After 24 h, the firefly and Renilla luciferase activity was measured using Dual-Glo Luciferase Assay system (Promega, #E2940) on a Perkin Elmer EnVision multilabel reader. The ratios of firefly luminescence to Renilla luminescence were calculated and normalized to control samples that were not treated.
(A reporter such as luciferase makes a cellular process visible.)

With `CN([C@@H](Cc1ccc(OS(=O)(=O)c2cccc3cnccc23)cc1)C(=O)N1CCN(c2ccccc2)CC1)S(=O)(=O)c1cccc2cnccc12` [KN-62], in experiment [1], the “effect on cystic organoid phenotype” value is reported as “suppressed the cystic organoid phenotype”. In experiment [2], the “effect on nuclear localization of YAP” value is “reversed SCM- or Wnt5a-induced nuclear translocation of YAP”.

As for `O=C(O)c1ccc2c3c1cccc3c(=O)n1c3ccccc3nc21` [STO-609], the “effect on cystic organoid phenotype” value in experiment [1] is given as “suppressed the cystic organoid phenotype”. Besides, the “effect on nuclear localization of YAP” value in experiment [2] is listed as “reversed SCM- or Wnt5a-induced nuclear translocation of YAP”.

In the case of `C=CC[C@@H]1/C=C(\C)C[C@H](C)C[C@H](OC)[C@H]2O[C@@](O)(C(=O)C(=O)N3CCCC[C@H]3C(=O)O[C@H](/C(C)=C/[C@@H]3CC[C@@H](O)[C@H](OC)C3)[C@H](C)[C@@H](O)CC1=O)[C@H](C)C[C@@H]2OC` [FK506], the “effect on cystic organoid phenotype” value in experiment [1] is “had no effect on this phenotype”. For the same molecule, the “cystic organoids (sheet SF.5d)” value in experiment [3] (10 uM FK506, no fibroblasts, replicate 1) came out at 16.7523; in experiment [3] (10 uM FK506, no fibroblasts, replicate 2), 26.0945; in experiment [3] (10 uM FK506, no fibroblasts, replicate 3), 24.3439; in experiment [3] (Q + 10uM FK506 (quiescent fibroblasts), replicate 1), 27.9243; in experiment [3] (Q + 10uM FK506 (quiescent fibroblasts), replicate 2) it was 44.452; in experiment [3] (Q + 10uM FK506 (quiescent fibroblasts), replicate 3), 38.0019. For the same molecule, the “cystic organoids (sheet SF.5d)” value is 52.1362 in experiment [3] (SEN + 10uM FK506 (senescent fibroblasts), replicate 1); 72.7766 in experiment [3] (SEN + 10uM FK506 (senescent fibroblasts), replicate 2); 37.8556 in experiment [3] (SEN + 10uM FK506 (senescent fibroblasts), replicate 3).

`CN1CCN(CCCN2c3ccccc3Sc3ccc(C(F)(F)F)cc32)CC1` [TFP, Trifluoperazine]: in experiment [1], the “effect on cystic organoid phenotype” value was “reduced the percentage of cystic organoids”. Further, in experiment [4], the “effect on Wnt5a-induced cystic organoid phenotype” value was “reduced the percentage of cystic organoids”. For the same molecule, the “effect on nuclear localization of YAP” value in experiment [2] is “reversed SCM- or Wnt5a-induced nuclear translocation of YAP”.

B1: Wnt11: noncanonical Wnt ligand; recombinant protein, R&D Systems 6179-WN-010 (protein, UniProt O96014 25-354, looked up)
Protein Wnt-11: IKWLALSKTPSALALNQTQHCKQLEGLVSAQVQLCRSNLELMHTVVHAAREVMKACRRAFADMRWNCSSIELAPNYLLDLERGTRESAFVYALSAAAISHAIARACTSGDLPGCSCGPVPGEPPGPGNRWGGCADNLSYGLLMGAKFSDAPMKVKKTGSQANKLMRLHNSEVGRQALRASLEMKCKCHGVSGSCSIRTCWKGLQELQDVAADLKTRYLSATKVVHRPMGTRKHLVPKDLDIRPVKDSELVYLQSSPDFCMKNEKVGSHGTQDRQCNKTSNGSDSCDLMCCGRGYNPYTDRVVERCHCKYHWCCYVTCRRCERTVERYVCK
Regarding B1, the cystic organoid percentage in experiment [5] (25ng/ml, replicate 1) is recorded as 1.8358; in experiment [5] (25ng/ml, replicate 2), -0.2717; in experiment [5] (25ng/ml, replicate 3), -1.279; in experiment [5] (50ng/ml, replicate 1), -0.06739; in experiment [5] (50ng/ml, replicate 2), -5.163; in experiment [5] (50ng/ml, replicate 3) it was 1.176. For the same molecule, the cystic organoid percentage is reported as -0.2558 in experiment [5] (100ng/ml, replicate 1); -1.25 in experiment [5] (100ng/ml, replicate 2); 2.262 in experiment [5] (100ng/ml, replicate 3); 2.331 in experiment [5] (250 ng/ml, replicate 1); -7.143 in experiment [5] (250 ng/ml, replicate 2); 1.176 in experiment [5] (250 ng/ml, replicate 3). Besides, the cystic organoid percentage in experiment [5] (500ng/ml, replicate 1) was 2.331; in experiment [5] (500ng/ml, replicate 2), -1.6129; in experiment [5] (500ng/ml, replicate 3), 1.42; in experiment [5] (1ug/ml, replicate 1), 2.516; in experiment [5] (1ug/ml, replicate 3), -0.8403. The “induction of cystic organoids” value in experiment [5] (recombinant Wnt ligand added to crypt cultures) was “failed to induced cystic organoids”. In addition, the “TOPbrite dual-luciferase Wnt reporter activity” value in experiment [6] (replicate 1) was determined as 0.9689; in experiment [6] (replicate 2), 1.428; in experiment [6] (replicate 3) it was 1.229; in experiment [6] (replicate 4) it was 1.621.
